# Reference: article PMC5027278
# Target: EphA2 (co-transfected with Anks1a constructs) (UniProt P29317)
# Assay: not stated; interaction in co-transfected cells, quantified against WT Anks1a (Supplementary Fig. 5f,g)
# Sequence of UniProt P29317 (P29317 24-976): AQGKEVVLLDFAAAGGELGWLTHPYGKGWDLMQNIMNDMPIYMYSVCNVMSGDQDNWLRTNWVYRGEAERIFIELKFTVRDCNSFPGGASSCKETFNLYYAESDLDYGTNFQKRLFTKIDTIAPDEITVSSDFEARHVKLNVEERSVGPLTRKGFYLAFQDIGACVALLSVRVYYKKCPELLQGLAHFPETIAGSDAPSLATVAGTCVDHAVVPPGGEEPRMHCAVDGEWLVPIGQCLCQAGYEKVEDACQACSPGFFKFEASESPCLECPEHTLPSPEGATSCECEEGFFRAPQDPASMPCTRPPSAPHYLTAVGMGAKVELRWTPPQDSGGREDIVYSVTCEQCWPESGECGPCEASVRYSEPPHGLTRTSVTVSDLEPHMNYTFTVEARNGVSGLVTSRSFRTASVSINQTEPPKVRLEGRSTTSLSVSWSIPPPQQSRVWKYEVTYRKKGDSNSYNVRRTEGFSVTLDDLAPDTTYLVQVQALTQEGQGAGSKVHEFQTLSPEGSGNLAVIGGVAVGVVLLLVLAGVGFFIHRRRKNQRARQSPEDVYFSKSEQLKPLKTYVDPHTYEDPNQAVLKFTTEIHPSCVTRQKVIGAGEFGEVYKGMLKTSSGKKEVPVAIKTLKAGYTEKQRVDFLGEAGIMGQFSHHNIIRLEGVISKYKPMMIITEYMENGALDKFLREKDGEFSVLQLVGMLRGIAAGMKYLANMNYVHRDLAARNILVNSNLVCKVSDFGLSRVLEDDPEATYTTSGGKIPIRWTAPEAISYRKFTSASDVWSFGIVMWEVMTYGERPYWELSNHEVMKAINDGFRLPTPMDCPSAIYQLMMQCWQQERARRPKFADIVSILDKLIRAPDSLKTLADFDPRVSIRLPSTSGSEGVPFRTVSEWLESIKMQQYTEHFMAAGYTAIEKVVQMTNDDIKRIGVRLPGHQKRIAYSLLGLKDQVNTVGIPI
substance,measurement,value
Anks1a-S647A/S663A double mutant (Ser DM) (natural protein),binding relative to WT Anks1a,50%
